According to article PMC4110399 (Current Biology, 2014):

B1: FAM21 R20-21 fragment (domain or fragment)
chain: KSKKKVEAKSIFDDDMDDIFSTGIQAKTTKPKSRSAQAAPEPRFEHKVSNIFDDPLNAFGGQ
modifications: Limits not printed (construct is in cited ref 16); taken as the C-terminal tail spanning LFa motifs 20-21. The LFa 20/21 positions are recalled from the entry's annotation and not shown in the …
B2: FAM21 R20-21 fragment (domain or fragment)
chain: B1 chain

Tests used:
[1] = molecular target: recombinant VPS35/VPS29 complex (wild type) (UniProt Q96QK1 1-796; Q9UBQ0 1-182); assay: ITC; FAM21 R20-21 titrated into the VPS35/VPS29 complex; three experiments for each complex with two independently prepared protein samples; global fitting with SEDPHAT; conditions: both partners purified
[2] = molecular target: recombinant VPS35(D620N)/VPS29 complex (UniProt Q96QK1 1-796; Q9UBQ0 1-182, D620N); assay: as above; conditions: both partners purified

Row | Binder | Kd [1] [nM] | stoichiometry N [1] | Kd [2] [µM]
1 | B1 | 2400 | 2 R20-21 per VPS35/VPS29 (by the order of the sentence) | –
2 | B2 | – | – | 4.6
